Results from article PMC11290222.
Where two headings read alike, the source gives them in different places.

How the values were obtained:
[1] = target: Ubx with E19G in the homeodomain, fused to VN (Ubx^E19G) (Drosophila); test: split reporter (BiFC, NanoBiT); BiFC in HEK293 cells co-transfected with VN- and VC-plasmids and pCAG-mCherry; read 48 h after transfection; percent = Venus fluorescent cells in one hundred red fluorescent cells, three independent triplicates
[2] = target: Ultrabithorax full-length fused to the N-terminal half of Venus (VN-Ubx) (Drosophila) (UniProt P83949); test: as above
[3] = target: Ubx homeodomain fused to VN (UbxHD) (Drosophila); test: as above
[4] = target: Ubx homeodomain fused to VN (UbxHD) (Drosophila); test: as above; remark: listed apart in the source
[5] = target: Antp^AAAA-Ubx BiFC complex (YPWM mutant Antp with VNUbx) (Drosophila) (UniProt P02833); test: split reporter (BiFC, NanoBiT) + FRET or BRET; BiFC-FRET in HEK293 cells: Venus reconstituted by the Antp-Ubx BiFC as acceptor, third protein fused to ECFP as donor; confocal spectral imaging 48 h after transfection; E-value by FRETTY in ImageJ
[6] = target: AntpΔHD-Ubx BiFC pair (VC-AntpΔHD with VNUbx) (Drosophila) (UniProt P02833); test: as above

Ubx homeodomain fused to VN (UbxHD) (Drosophila), sequence (P83949 whole entry, the tested form may be a part): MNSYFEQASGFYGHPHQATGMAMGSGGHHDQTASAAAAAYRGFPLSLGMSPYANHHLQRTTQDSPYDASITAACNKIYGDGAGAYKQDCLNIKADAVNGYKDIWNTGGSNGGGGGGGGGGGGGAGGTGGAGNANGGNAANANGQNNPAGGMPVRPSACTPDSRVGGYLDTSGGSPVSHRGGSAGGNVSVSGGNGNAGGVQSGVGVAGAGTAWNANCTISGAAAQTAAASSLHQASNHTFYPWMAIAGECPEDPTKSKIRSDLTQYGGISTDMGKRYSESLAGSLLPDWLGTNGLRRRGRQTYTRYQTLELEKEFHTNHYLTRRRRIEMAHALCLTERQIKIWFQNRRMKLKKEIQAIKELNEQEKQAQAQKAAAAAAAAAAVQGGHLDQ

Antennapedia full-length fused to the C-terminal half of Venus (VC-Antp) (from UniProt P02833 1-378) (natural protein)
percent of transfected cells positive in BiFC [1]: 86%

Antp lacking homeodomain helix 1, fused to VC (AntpΔH1) (from UniProt P02833 1-378) (natural protein)
percent of transfected cells positive in BiFC [2]: 24%

Antp lacking homeodomain helixes 1 and 2, fused to VC (AntpΔH1-2) (from UniProt P02833 1-378) (natural protein)
percent of transfected cells positive in BiFC [2]: 12%

Antp homeodomain fused to VC (AntpHD) (domain or fragment)
percent of transfected cells positive in BiFC [3]: 96%

Antp homeodomain with E19G, fused to VC (AntpHD^E19G) (domain or fragment)
percent of transfected cells positive in BiFC [1]: 67% | percent of transfected cells positive in BiFC [2]: 60%

Antp with the homeodomain deleted, fused to VC (AntpΔHD) (from UniProt P02833 1-378) (natural protein)
percent of transfected cells positive in BiFC [2]: 6%

TBP without the PolyQ stretch, fused to a Venus half for BiFC (TBPΔQ) (from UniProt P20227 1-353) (natural protein)
percent of transfected cells positive in BiFC [3]: 15% | percent of transfected cells positive in BiFC [2]: 34%

B1: TATA-binding protein fused to a Venus half for BiFC (TBP) (natural protein)
chain: MDQMLSPNFSIPSIGTPLHQMEADQQIVANPVYHPPAVSQPDSLMPAPGSSSVQHQQQQQQSDASGGSGLFGHEPSLPLAHKQMQSYQPSASYQQQQQQQQLQSQAPGGGGSTPQSMMQPQTPQSMMAHMMPMSERSVGGSGAGGGGDALSNIHQTMGPSTPMTPATPGSADPGIVPQLQNIVSTVNLCCKLDLKKIALHARNAEYNPKRFAAVIMRIREPRTTALIFSSGKMVCTGAKSEDDSRLAARKYARIIQKLGFPAKFLDFKIQNMVGSCDVKFPIRLEGLVLTHCNFSSYEPELFPGLIYRMVRPRIVLLIFVSGKVVLTGAKVRQEIYDAFDKIFPILKKFKKQS
percent of transfected cells positive in BiFC [4]: 41%

B2: Extradenticle fused to ECFP (natural protein)
chain: MEDPNRMLAHTGGMMAPQGYGLSGQDDGQNAGSENEVRKQKDIGEILQQIMSISEQSLDEAQARKHTLNCHRMKPALFSVLCEIKEKTVLSIRNTQEEEPPDPQLMRLDNMLIAEGVAGPEKGGGGAAAASAAAASQGGSLSIDGADNAIEHSDYRAKLAQIRQIYHQELEKYEQACNEFTTHVMNLLREQSRTRPITPKEIERMVQIIHKKFSSIQMQLKQSTCEAVMILRSRFLDARRKRRNFSKQASEILNEYFYSHLSNPYPSEEAKEELARKCGITVSQVSNWFGNKRIRYKKNIGKAQEEANLYAAKKAAGASPYSMAGPPSGTTTPMMSPAPPQDSMGYPMGSGGYDQQQPYDNSMGGYDPNLHQDLSP
FRET E value [5]: 0.16 | FRET E value [6]: 0.12
